# Target: SARS-CoV-2 Omicron spike protein (SARS-CoV-2 B.1.1529 spike protein) (SARS-CoV-2 (Omicron)) (UniProt P0DTC2)
# Experiment: SPR
substance,measurement,value
Urtica dioica agglutinin (UDA) (natural protein),Kd,11 nM
